To fix the notation:
B4: IL-17RC extracellular domain (receptor)
chain: LERLVGPQDATHCSPVSLEPWGDEERLRVQFLAQQSLSLAPVTAATARTALSGLSGADGRREERGRGKSWVCLSLGGSGNTEPQKKGLSCRLWDSDILCLPGDIVPAPGPVLAPTHLQTELVLRCQKETDCDLCLRVAVHLAVHGHWEEPEDEEKFGGAADSGVEEPRNASLQAQVVLSFQAYPTARCVLLEVQVPAALVQFGQSVGSVVYDCFEAALGSEVRIWSYTQPRYEKELNHTQQLPDCRGLEVWNSIPSCWALPWLNVSADGDNVHLVLNVSEEQHFGLSLYWNQVQGPPKPRWHKNLTGPQIITLNHTDLVPCLCIQVWPLEPDSVRTNICPFREDPRAHQNLWQAARLQLLTLQSWLLDAPCSLPAEAALCWRAPGGDPCQPLVPPLSWENVTVDKVLEFPLLKGHPNLCVQVNSSEKLQLQECLWADSLGPLKDDVLLLETRGPQDNRSLCALEPSGCTSLPSKASTRAARLGEYLLQDLQSGQCLQLWDDDLGALWACPMDKYIHKR
notes: Expressed in 293S GnTI- cells with and without a C-terminal BirA tag; An additional C-terminal Fc tag was cleaved by 3C protease

In assay [1] the target is T1, human IL-17RA extracellular domain (ECD) (human, UniProt Q96F46 32-317).
T1 construct: For SPR it was made with and without a C-terminal BirA ligase tag: the biotinylated form was immobilised and the other was injected; also called IL-17RA ECD; IL-17RA ectodomain
T1 sequence: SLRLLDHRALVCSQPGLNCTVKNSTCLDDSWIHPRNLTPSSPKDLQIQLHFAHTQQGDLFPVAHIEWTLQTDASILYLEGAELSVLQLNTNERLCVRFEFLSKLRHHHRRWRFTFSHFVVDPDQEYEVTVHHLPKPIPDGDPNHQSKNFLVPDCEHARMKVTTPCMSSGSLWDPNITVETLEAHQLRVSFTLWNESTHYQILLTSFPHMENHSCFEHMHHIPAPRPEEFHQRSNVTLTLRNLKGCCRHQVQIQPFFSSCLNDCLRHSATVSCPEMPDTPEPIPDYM
Kind of assay: SPR, Biacore T100. As to the method: (§1) IL-17RA has been implicated in IL-17E (also known as IL-25) signaling together with IL-17RB (23). IL-25 promotes Th2 inflammatory responses and shares approximately ˜20% identity with IL-17A and IL-17F. […] We hypothesized that IL-17RA may only bind IL-25 once IL-25 is captured by IL-17RB. To test this hypothesis, we immobilized IL-17RB on an SPR chip, captured IL-25 and measured the affinity of IL-17RA for the IL-17RB-IL-25 complex. […] At concentrations up to 50 μM, no interaction could be observed between IL-17RA and IL-25, or between the IL-17RB-IL-25 complex and a second IL-17RB molecule.
(§2) Binding affinities were calculated via surface plasmon resonance (SPR) on a BIACORE® T100 (GE Healthcare). C-terminally biotinylated IL-17 receptors were coupled to immobilized streptavidin on either an SA or CM4-sensor chip (GE Healthcare). An irrelevant, biotinylated protein was captured at equivalent immobilization densities to control flow cells. To measure the second receptor binding interaction, the cytokine was first captured to the immobilized receptor, followed by the second receptor injection. Low coupling densities (200-400 RU) and excess cytokine concentrations were used to optimize the number of cytokine homodimers bound to a single receptor. […] Data was analyzed using BIACORE® T100 evaluation software Version 2.0 (GE Healthcare). […]
A general note: Surface plasmon resonance follows binding to a sensor surface in real time, without labels.

The target in assay [2] is B4. Kind of assay: SPR, Biacore T100; biotinylated receptor on streptavidin chip, cytokine injected. The text has this: (§3) Whilst others have reported the binding affinities of IL-17RA and IL-17RC for IL-17A and IL-17F (7, 22), we considered it pertinent to assess the binding affinity of the second receptor-binding site. The strategy was to immobilize one receptor on the SPR chip at a low coupling density in order to minimize possible homo-dimerization (e.g. cross-linking) of the receptors on the chip. The dimeric IL-17 cytokine was then captured by this receptor so that each receptor would be bound to one dimeric IL-17 ligand, leaving an exposed and accessible second receptor-binding site. The second receptor was subsequently passed over the preformed receptor-cytokine complexes to measure the affinity of the second receptor-binding event. In this fashion, the complex was assembled in a stepwise manner and each of the binding affinities was measured (FIG. 3).
(§4) Binding affinities were calculated via surface plasmon resonance (SPR) on a BIACORE® T100 (GE Healthcare). C-terminally biotinylated IL-17 receptors were coupled to immobilized streptavidin on either an SA or CM4-sensor chip (GE Healthcare). An irrelevant, biotinylated protein was captured at equivalent immobilization densities to control flow cells. […] Data was analyzed using BIACORE® T100 evaluation software Version 2.0 (GE Healthcare). […]

The target in assay [3] is T1, human IL-17RA extracellular domain (ECD). Described as above.
Excerpt: as §3, §4

Assay [4] shares this target. Put plainly: plate binding assay to the soluble extracellular domain of IL-17RA.
In assay [5] the target is T2, pre-assembled IL-17RC-IL-17A complex (IL-17A captured by immobilised IL-17RC) (human, UniProt Q8NAC3 21-538; Q16552 25-155, C-terminal biotin on BirA tag).
T2 construct: One receptor and one IL-17A dimer on the SPR chip; also called existing IL-17RC-IL-17A complex
T2 sequence 1: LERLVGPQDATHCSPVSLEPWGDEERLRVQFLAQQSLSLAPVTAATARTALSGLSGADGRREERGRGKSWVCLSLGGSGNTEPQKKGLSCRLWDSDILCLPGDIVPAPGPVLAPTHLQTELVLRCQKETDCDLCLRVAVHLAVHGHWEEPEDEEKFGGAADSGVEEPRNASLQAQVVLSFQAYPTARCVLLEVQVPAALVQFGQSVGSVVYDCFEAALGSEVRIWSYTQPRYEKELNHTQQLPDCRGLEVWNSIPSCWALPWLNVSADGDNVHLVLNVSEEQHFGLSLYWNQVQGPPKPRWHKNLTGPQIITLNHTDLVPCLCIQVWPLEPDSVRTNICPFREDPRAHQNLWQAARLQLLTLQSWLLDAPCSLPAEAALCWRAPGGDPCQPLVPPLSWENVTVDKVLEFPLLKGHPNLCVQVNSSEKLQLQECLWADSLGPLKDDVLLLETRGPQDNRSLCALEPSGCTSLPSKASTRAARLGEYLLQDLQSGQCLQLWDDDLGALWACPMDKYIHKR
T2 sequence 2: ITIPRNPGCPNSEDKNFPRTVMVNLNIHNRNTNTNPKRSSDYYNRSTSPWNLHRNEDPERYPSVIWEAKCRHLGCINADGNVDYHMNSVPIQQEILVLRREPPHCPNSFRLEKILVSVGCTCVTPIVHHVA
Put plainly: SPR; second receptor injected over IL-17A captured by immobilised IL-17RC.
Excerpt: as §3, §4

Assay [6] addresses T3, pre-assembled IL-17RB-IL-25 complex (IL-25 captured by immobilised IL-17RB) (human, UniProt Q9NRM6 18-292; Q9H293 33-177, C-terminal biotin on BirA tag).
T3 construct: One receptor and one IL-25 dimer on the SPR chip
T3 sequence 1: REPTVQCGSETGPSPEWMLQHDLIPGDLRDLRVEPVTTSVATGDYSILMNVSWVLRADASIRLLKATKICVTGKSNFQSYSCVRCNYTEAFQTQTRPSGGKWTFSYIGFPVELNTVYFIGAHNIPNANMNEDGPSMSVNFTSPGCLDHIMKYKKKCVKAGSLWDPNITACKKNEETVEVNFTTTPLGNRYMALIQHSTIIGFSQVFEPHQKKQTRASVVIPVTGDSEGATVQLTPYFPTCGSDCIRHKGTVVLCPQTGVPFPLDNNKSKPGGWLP
T3 sequence 2: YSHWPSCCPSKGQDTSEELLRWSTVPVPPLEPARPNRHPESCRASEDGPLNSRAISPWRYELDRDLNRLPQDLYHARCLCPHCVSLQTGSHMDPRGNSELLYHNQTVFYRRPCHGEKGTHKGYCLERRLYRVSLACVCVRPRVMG
Put plainly: SPR, Biacore T100; second receptor injected over IL-25 captured by immobilised IL-17RB. The method, then:
as §1, §2

A value given as a limit tells only on which side of the number the result lay.

One may read the Kd as the free concentration of one partner at which half of the binding sites on the other are occupied at equilibrium, for simple one-to-one binding.

B1: IL-25 (IL-17E) (ligand)
chain: YSHWPSCCPSKGQDTSEELLRWSTVPVPPLEPARPNRHPESCRASEDGPLNSRAISPWRYELDRDLNRLPQDLYHARCLCPHCVSLQTGSHMDPRGNSELLYHNQTVFYRRPCHGEKGTHKGYCLERRLYRVSLACVCVRPRVMG
notes: Expressed by High Five cells with a C-terminal hexa-His tag; It is treated as a dimeric cytokine in the SPR scheme; not shown: C-terminal hexa-His tag
With B1, the binding result in assay [1] is reported as “no binding (tested: up to 50 µM)”.

B2: IL-17F homodimer (ligand, not shown: small tags and cut ends)
chain: RKIPKVGHTFFQKPESCPPVPGGSMKLDIGIINENQRVSMSRNIESRSTSPWNYTVTWDPNRYPSEVVQAQCRNLGCINAQGKEDISMNSVPIQQETLVVRRKHQGCSVSFQLEKVLVTVGCTCVTPVIHHVQ
notes: Printed as full length IL-17F with a C-terminal hexa-His tag, secreted by High Five insect cells; It is a disulfide-linked homodimer; also called IL-17F/F
In the case of B2, the Kd was found to be 4.4 nM in assay [2] and 292 nM in assay [3].

B3: mutant single-chain IL-17A (R47E, S65K subunit - (G4S)6 linker - N89A, C-terminally truncated subunit - His tag) (designed binder)
chain: GITIPRNPGCPNSEDKNFPRTVMVNLNIHNRNTNTNPKRSSDYYNESTSPWNLHRNEDPERYPKVIWEAKCRHLGCINADGNVDYHMNSVPIQQEILVLRREPPHCPNSFRLEKILVSVGCTCVTPIVHHVASGGGGSGGGGSGGGGSGGGGSGGGGSGGGGSGITIPRNPGCPNSEDKNFPRTVMVNLNIHNRNTNTNPKRSSDYYNRSTSPWNLHRNEDPERYPSVIWEAKCRHLGCINADGNVDYHMASVPIQQEILVLRREPPHCPNSFRLEKILVSVGCTCVTPASHHHHHH
notes: also called sc17A-DN; mutant single-chain IL-17A protein
Consider B3, for which the “affinity relative to wild-type IL-17A (factor)” value in assay [4] is no more than 4 fold.
With B4, the affinity in assay [5], expressed as Kd, was 8000 nM.

B5: IL-17RB extracellular domain (receptor)
chain: REPTVQCGSETGPSPEWMLQHDLIPGDLRDLRVEPVTTSVATGDYSILMNVSWVLRADASIRLLKATKICVTGKSNFQSYSCVRCNYTEAFQTQTRPSGGKWTFSYIGFPVELNTVYFIGAHNIPNANMNEDGPSMSVNFTSPGCLDHIMKYKKKCVKAGSLWDPNITACKKNEETVEVNFTTTPLGNRYMALIQHSTIIGFSQVFEPHQKKQTRASVVIPVTGDSEGATVQLTPYFPTCGSDCIRHKGTVVLCPQTGVPFPLDNNKSKPGGWLP
notes: Expressed with and without a C-terminal BirA tag
As for B5, the binding result in assay [6] was “no binding (tested: up to 50 µM)”.
